In patent US8846873B2, “Antibodies directed to GPNMB and uses thereof” (Celldex Therapeutics, Inc., priority 2004, dated 2014):

What was measured:
GPNMB = molecular target: T1, GPNMB (Homo sapiens, UniProt Q14956); assay: ELISA of hybridoma supernatants for binding to GPNMB
T1 construct: made in house; host or cells: HEK 293
T1 sequence (Q14956 23-492): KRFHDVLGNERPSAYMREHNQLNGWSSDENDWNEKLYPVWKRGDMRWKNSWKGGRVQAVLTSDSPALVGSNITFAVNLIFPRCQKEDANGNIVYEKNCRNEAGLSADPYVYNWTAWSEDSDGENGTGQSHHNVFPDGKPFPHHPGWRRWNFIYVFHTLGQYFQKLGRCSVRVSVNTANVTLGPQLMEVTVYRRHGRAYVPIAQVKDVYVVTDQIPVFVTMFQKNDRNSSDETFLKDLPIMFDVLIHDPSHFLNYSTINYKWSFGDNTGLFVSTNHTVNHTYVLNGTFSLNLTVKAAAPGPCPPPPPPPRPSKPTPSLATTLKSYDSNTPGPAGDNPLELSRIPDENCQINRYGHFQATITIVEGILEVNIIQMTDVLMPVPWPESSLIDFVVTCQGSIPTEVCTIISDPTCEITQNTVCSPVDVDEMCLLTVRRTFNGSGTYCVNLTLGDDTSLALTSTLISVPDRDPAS
Method: After 14 days of culture, hybridoma supernatants were screened for GPNMB specific monoclonal antibodies. In the Primary screen, the ELISA plates (Fisher, Cat. No. 12-565-136) were coated with 50 μL/well of GPNMB (1 μg/mL) in Coating Buffer (0.1 M Carbonate Buffer, pH 9.6, NaHCO3 8.4 g/L), then incubated at 4° C. overnight. After incubation, the plates were washed with Washing Buffer (0.05% Tween 20 in PBS) three times. 200 μL/well Blocking Buffer (0.5% BSA, 0.1% Tween 20, 0.01% Thimerosal in 1×PBS) were added and the plates were incubated at room temperature for 1 h. After incubation, the plates were washed with Washing Buffer three times. Aliquots (50 μL/well) of hybridoma supernatants and positive and negative controls were added, and the plates were incubated at room temperature for 2 h. The positive control used throughout was serum from the relevant GPNMB immunized XenoMouse® mouse and the negative control was serum from the KLH-immunized relevant strain of XenoMouse® mouse. After incubation, the plates were washed three times with Washing Buffer. 100 μL/well of detection antibody goat anti-huIgGfc-HRP (Caltag, Cat. No. H10507, using concentration was 1:2000 dilution) was added and the plates were incubated at room temperature for 1 hour. After incubation, the plates were washed three times with Washing Buffer. 100 μl/well of TMB (BioFX Lab. Cat. No. TMSK-0100-01) was added, and the plates were allowed to develop for about 10 minutes (until negative control wells barely started to show color). 50 μl/well stop solution (TMB Stop Solution (BioFX Lab. Cat. No. STPR-0100-01) was then added and the plates were read on an ELISA plate reader at a wavelength of 450 nm.
Hybridoma supernatants were screened for binding to GPNMB by ELISA as described above in Example 2.

TK10 = assay: Anti GPNMB antibody mediated indirect cell killing (saporin secondary antibody-toxin conjugate, colony count); assay type: cell-based; details: primary antibody 50 ng/mL plus goat anti-human IgG-saporin 100 ng/well
Method: UACC-62, a GPNMB antigen expressing cell line, and TK10, a non-expressing cell line were plated onto flat bottom 96-well tissue culture plates (Becton Dickinson, Franklin Lakes, N.J., USA) at a density of 3000 cells per well. Once the cells reached ˜25% confluency, 100 ng/well of secondary antibody-toxin conjugate (goat anti-human IgG-saporin; Advanced Targeting Systems, San Diego, USA, HUM-ZAP; cat. # IT-22) was added. Anti-GPNMB MAbs 2.10.2, 2.22.1, 1.15.1 or isotype control mAb (pK16.3) were added to each well at a final concentration of 10 or 50 ng/mL. An anti-EGFR monoclonal antibody (MS-269-PABX, NeoMarkers, Fremont, Calif., USA) was used as a positive primary antibody control. Chemotherapy reagent 5-FU at 600 uM was used as a positive reagent control. On day 5, the cells were trypsinized, transferred to 6-well tissue culture plates and incubated at 37° C. Plates were examined daily and between 8-10 days, all plates were Giemsa stained and colonies were counted.

[1] = tested on: lymphoma or leukemia cell lines; assay: Clonogenic assay with 1.15.1-AE (methylcellulose); assay type: cell-based; details: various concentrations
Method: Lymphoma or leukemia cell lines were mixed with methylcellulose base media (R&D Systems, USA) and in various concentrations of unconjugated and Auristatin E-conjugated 1.15.1 antibody before plating onto 6-well tissue culture plates (Becton Dickinson, Franklin Lakes, N.J., USA). […] Plates were incubated at 37° C. and examined daily. On days 14-18, colonies on the plates were counted.

SK-Mel-2 cells = assay: Apoptosis analysis (Annexin V-FITC / propidium iodide); assay type: cell-based, human; details: SK-Mel-2, 48 hour, 1000 ng/mL
Method: (§1) Briefly, cells were pulsed at the indicated times with 30 μM of bromodeoxyuridine (BrdU, Sigma) for 30 min, harvested, fixed and permeabilized in methanol. Nascent DNA synthesis was detected by anti-bromodeoxyuridine-FITC (BD Biosciences, San Jose, Calif.) staining. Total DNA content was detected using propidium iodide (PI, Sigma). For apoptosis analysis, cells were treated as above and labeled with Annexin V-FITC followed by propidium iodide exclusion using the Annexin V-FITC Apoptosis Detection kit I (BD PharMingen, San Diego, Calif.) according to the manufacturer's protocols. Flow cytometry (as described in the previous Example) was used to assay both cell cycle and apoptosis studies.
(§2) To investigate this possibility, analysis of apoptosis using Annexin-V surface binding and loss of propidium iodide (PI) exclusion was performed.

TK-10 cells = assay: as above; assay type: cell-based, human; details: TK-10, 48 hour, 1000 ng/mL
Method: as §1, §2

B1: Mab1.15.1 (protein, listed as Homo sapiens)
chain: QVQLQESGPGLVKPSQTLSLTCTVSGGSISSFNYYWSWIRHHPGKGLEWIGYIYYSGSTYSNPSLKSRVTISVDTSKNQFSLTLSSVTAADTAVYYCARGYNWNYFDYWGQGTLVTVSSA
Avg OD (GPNMB; 12.3 ng/mL): 0.168 | Avg OD (GPNMB; 37 ng/mL): 0.381 | Avg OD (GPNMB; 111 ng/mL): 0.701 | Avg OD (GPNMB; 333 ng/mL): 0.902 | Avg OD (GPNMB; 1 μg/mL): 1.051 | Avg OD (GPNMB; 3 μg/mL): 1.159 | cell death in GPNMB negative TK10 cells (TK10): less than 24% | effect on growth of all antigen positive hematopoietic cell lines [1]: no effect on growth | % AnnV+/PI+ UR (SK-Mel-2 cells): 0.45% | % AnnV+/PI− LR (SK-Mel-2 cells): 4.74% | % AnnV−/PI+ UL (SK-Mel-2 cells): 0.36% | % AnnV+/PI+ UR (TK-10 cells): 0.34% | % AnnV+/PI− LR (TK-10 cells): 0.55% | % AnnV−/PI+ UL (TK-10 cells): 0.83%
